In patent publication US20030166162:

Columns and labels:
[1] = system: GST-Chymosin pro-peptide-Hirudin fusion protein
[2] = system: poly histidine tagged chymosin pro-peptide carp growth hormone fusion protein

Substance	cleavage of the fusion protein at pH 2.0, Western blotting (results not shown) [1]	cleavage of the fusion protein at pH 4.5, Western blotting (results not shown) [1]	cleavage of the fusion protein at pH 2, SDS-PAGE and Western blot [2]	cleavage of the fusion protein, SDS-PAGE and Western blot [2]
chymosin (Sigma)	complete cleavage was also observed when the GST-Pro-Hirudin fusion which was treated at pH 2.0 and supplemented with 2 ug chymosin	apart from treatment at pH 4.5, complete cleavage was also observed	the cleavage with chymosin yielded a protein band corresponding to the expected theoretical molecular mass of the cGH (approximately 22 kDa) polypeptide	
enterokinase				cleavage of the fusion protein was observed with enterokinase yielding a protein band corresponding to the calculated molecular mass of the Pro-cGH fusion (26 kDa)
